The supplement of paper PMC12042874
± gives the uncertainty stated by the source.

Assay: amyloid nucleation score (Sup35N fusion, yeast selection) (log enrichment); library NNK2; higher = more nucleation; inactive = no reads after selection
Outline: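 On medium lacking adenine and uracil, psi-negative yeast expressing peptides of 20 random codons fused to Sup35N were grown 7 days at 30°C after a 24-hour induction with 100 μM copper sulfate. Illumina sequencing of input and output plasmid inserts gave the reads, and sequences under 100 input reads were excluded. The nucleation score is the DiMSum log enrichment of output over input reads, centred on the mode score of non-aggregating sequences.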

Substance	amyloid nucleation score
WSDSFTCDCGKLITTSSRLS	2.02 ± 0.15
GFKSFEHL	1.91 ± 0.14
YIAILFYMC	7.2 ± 0.044
LYHYPS	inactive
SARHSRDR	2.31 ± 0.066
GLFCSLLCLVGAVSEKT	5.26 ± 0.086
DGFHLNALHLESRQLGVGFS	3.87 ± 0.069
TNAACSPLTCGHQMAVSPNY	0.358 ± 0.32
CNSRCEDWPWIERTPG	0.571 ± 0.47
KDYPLAGSLVTKL	0.317 ± 0.62
TLHWK	-0.667 ± 0.33
KHRWII	-0.287 ± 0.3
SMPMGGERIWVIYCRFQVLS	-0.585 ± 0.35
VVRHSLKRL	-0.228 ± 1.1
KDKGVCSQLYRDLVWRDEVF	-0.035 ± 0.31
RSSGLIGLGWKQI	-1.67 ± 0.75
KVMIVNRVIYTNRFNQGLTM	7.705 ± 0.051
LDPNSYHKSRWFNMMSFIRV	0.611 ± 0.81
FHPPTGPPYINEMIGASTDR	-0.069 ± 0.27
LLGQLKFLFLDVFLWLYVCS	1.56 ± 0.22
VFTSFVG	0.536 ± 0.46
RSVLWSSMVGV	1.39 ± 0.44

Substance	amyloid nucleation score
LPLYMTYACPVPTSIHRIIL	-0.06 ± 0.28
HEPGFHYYCY	2.43 ± 0.1
LCRYFQN	0.218 ± 0.8
YSNANGRTRVWGPRERKKDQ	-0.004 ± 0.65
IKWSLHRYYFVMFICSFIAS	-0.83 ± 0.61
IGCLVYHIITRVFVFVSPLF	inactive
CNVLSRRNGKLRACFS	0.732 ± 0.4
SACRMNWEVGGIGLSVPLCG	0.421 ± 0.2
STYLFNSSHPVSVISEAQFS	-0.408 ± 0.79
HAMWCFGFIVLGGGNDIRIW	8.219 ± 0.045
ARVNYLRTCKYASRNSFHRS	-0.913 ± 0.45
VTCASWYYGKISGLYACYRL	0.641 ± 0.34
RVIILNTNDGSVEDMYVESQ	3.98 ± 0.049
SYFHNHWFCLRQFRVDASWC	-0.047 ± 0.46
CNVTIIYVPYGEWTTFYLRL	7.45 ± 0.082
GVRHGHTRSVGYFSVSYTSL	-1.05 ± 0.54
HVCCLKLVRCAGGGFVVKHV	0.779 ± 0.18
QGNSETGGNMCYDASCWLYG	-0.064 ± 0.45
KECRYID	inactive
HMNFRWLYMSIYVISLLEAL	inactive
ADMIMRYKG	0.879 ± 0.57
RRLLGRLFLGTTSKLYVGDL	-0.147 ± 0.26

Substance	amyloid nucleation score
CRYPFTPACTYMNLG	-0.114 ± 1
TCNSGRYSRAACAWWN	-0.114 ± 0.45
FSIGGVKGEGSKFQGGSQMS	-0.12 ± 1
RYSNKSDDYRGTSYLMYHVM	0.232 ± 0.45
SFIWHLPFVC	1.24 ± 0.4
SCLIGLRLVLSLTAHDTETA	3.97 ± 0.11
SRYFVVAGRSLNTCVNMCCV	4.78 ± 0.069
NIGSVKN	0.098 ± 0.38
NRYVLCNLVVISVSGISLCT	7.249 ± 0.063
FVKWIMY	4.09 ± 0.098
NHGWLYGWVVVNYTFTTGVM	-1.63 ± 0.39
PSTIGRMVVLACWSDICRRG	8.88 ± 0.059
NSEHTNLSSHLGNIRFINCL	0.037 ± 0.79
SYDPGITSSWMVRIRRVRMC	-0.001 ± 0.49
IDVMVMVRQSAKEQSSVRGC	1.34 ± 0.2
GRDNYSWCSRVEPCKRNGAL	0.103 ± 0.43
SFKLYLYVGAVFFRLLSLVS	-1.08 ± 0.76
VVSTSYIGGKKRSFCVRCGG	-0.73 ± 0.49
QFVNQRSYKGSLTFFMIRGR	inactive
LSHRNPASRNYRPWQLNC	0.245 ± 0.29
SGCPNDWQYFSS	-1.08 ± 0.54
NVAMSCPRGRVPR	1.35 ± 0.38

Substance	amyloid nucleation score
MFVLFWVVNSTDLCGTAPLV	0.205 ± 0.61
GSYDLEGGLLHGLTTTSYNR	-0.235 ± 0.55
NVLDVGVGRTFVFK	-0.291 ± 0.79
KVSYMFLVTLSYGSWFPSSM	-0.545 ± 0.45
SSADMQRY	-0.383 ± 0.48
TSWSLVVVKVDIWPNQSVWV	-0.391 ± 0.55
VYTVVYGYNWISCDHFSWDT	7.47 ± 0.08
ELVVPQWGQRRVHDLVCVEP	1.75 ± 0.29
FVNFMGWTMSNINNVYFGHK	7.303 ± 0.055
ATMVSPTSQLAPNMYNASLT	5.97 ± 0.085
VPWLNGRVVASRKDKTRSSR	0.009 ± 0.76
AYSEPAISQRFFLSGLKSII	-0.885 ± 0.34
ECRMRLVFHRSIGYTTQCFV	3.37 ± 0.064
MDRWGLFMGYCIADHMIMFD	-0.416 ± 0.48
GFQWLDAYLLGSFWMRMSTC	0.516 ± 0.81
GRVNLDRCSSWVGWFVGCLL	-1.09 ± 0.78
WQCKLPSNYGFGTK	0.11 ± 0.77
NYGVFTSIHVCYDVINVVRV	-0.661 ± 1.1
TNLCVPFVYEHFGCYGYN	3.83 ± 0.12
IYSYYGCYLCRNCGLVKFSK	4.03 ± 0.07
